According to PMC11279616 (Pharmaceuticals, 2024):
“And” between values parts separate entries of the source, which are not always exact repeats. Equal values may be shown once.

Molecular target: SARS-CoV-2 Omicron BA.5 sublineage receptor binding domain (RBD) (SARS-CoV-2) (UniProt P0DTC2)
Assay: SPR

For DPP4_(270–295) peptide, the Kd was 1200 nM and 1530 nM, the koff was 0.0014 s⁻¹ and the kon was 1160 M⁻¹ s⁻¹.
